Data published in the supplement of paper PMC9170038.

System: MS2 coat protein
Assay: apparent KD of MS2 coat protein; designed switch direction (-1 OFF switch, 1 ON switch): -1; higher = weaker reporter binding
Method in brief: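 Apparent KD, taken as the median over clusters for each design, was obtained by curve-fitting normalised cluster fluorescence. Designed RNA switches had been transcribed on Illumina chips by stalled E. coli RNA polymerase and titrated with SNAP-549-labelled MS2 coat protein, doubling from 0.7 or 1.5 nM to 3 µM.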

[1] = Eterna round: R95, input ligand: FMN 200 uM
[2] = Eterna round: R95, input ligand: microRNA oligo, concentration not stated
[3] = Eterna round: R95, input ligand: none
[4] = input ligand: microRNA oligo, concentration not stated

Row | Sequence | apparent KD of MS2 coat protein [1] | apparent KD of MS2 coat protein [2] | apparent KD of MS2 coat protein [3] | apparent KD of MS2 coat protein (input ligand: FMN 200 uM) | apparent KD of MS2 coat protein (input ligand: none) | apparent KD of MS2 coat protein [4]
1 | UAAUGCAAGUAAAGAUCUUACAUGAGGAUCACCCAUGUGCUCGUCUUAUAAAGUACUAUCACGAAAGUGAUAGUACA [Mat - Sensor v3 - turn-off var 1 - Eli Mod - D89] (puzzle: Sensor v3, turn-off variant 1) | 0.0182 µM | 0.119 µM | 0.018 µM |  |  | 
2 | UAAUGUAUAUAGGAUAUCUAGCUGGAAACAGCUAGAGAAGGAUGUACAUGAGGAUCACCCAUGUAAAUCGUGAA [Ex6/13-B1] (Eterna round: R97, puzzle: Exclusion 6) |  |  |  | 0.0604 µM | 0.0249 µM | 
3 | UACAAGCUUUUAAGAUCCCACAUGAGGAUCACCCAUGUGCUCGUCUUAUAACGUACUGUGACGAAAGUCACGGUACG [JL TOV1 3.24] (Eterna round: R97, puzzle: Sensor, turn-off variant 1) |  |  |  | 0.0158 µM | 0.0243 µM | 
4 | UACACCACAUGAGGAUCAAACAUGAGGAUCACCCAUGUAUAGCAAGCUUUUUGCUCGUCUUAUAAAUAUGUGGUGUA [Electric Eye 6 - Jieux - Sensor, turn-off variant 1] (Eterna round: R97, puzzle: Sensor, turn-off variant 1) |  |  |  | 0.0149 µM | 0.0149 µM | 
5 | UACACCGCAUGAGGAUCAAACAUGAGGAUCACCCAUGUAUAGCAAGCUUUUUGCUCGUCUUAUAAAUAUGUGGUGUA [Electric Eye 8 - Jieux - Sensor, turn-off variant 1] (Eterna round: R97, puzzle: Sensor, turn-off variant 1) |  |  |  | 0.0166 µM | 0.0155 µM | 
6 | UACACUCAGCAGGAUAUGCAACAAAAUUAAAACGCAGAAGGGUUGACAUGAGGAUCACCCAUGUAACUCAUGCA [EX6 A.1] (Eterna round: R97, puzzle: Exclusion 6) |  |  |  | 0.0142 µM | 0.0157 µM | 
7 | UACACUGCAUGAGGAUCAAACAUGAGGAUCACCCAUGUAUAGCAGGCUUUUUGUCCGUCUUAUAAUUAUGUAGUGUA [Electric Eye 17 - Jieux - Sensor, turn-off variant 1] (Eterna round: R97, puzzle: Sensor, turn-off variant 1) |  |  |  | 0.0173 µM | 0.015 µM | 
8 | UACAUGAGGAUCACCCAUGUACCUUAUGUAAGAGUGGGAAGUAAGGAUAUAUAUGAAGGAAUGAAAUAGAAGGUGCAUAGAGAG [Default title] (Eterna round: R96, puzzle: Exclusion NG 3) |  |  |  | 0.121 µM | 0.0933 µM | 0.0974 µM
9 | UACAUGAGGAUCACCCAUGUUUUGUCGUGUAUGGUAUUUAUCUAGGAUAUCAAGUUAUGUAUUUAUGAGAAGGAGAAUAUUAAU [JMF's solution 31] (Eterna round: R96, puzzle: Exclusion NG 3) |  |  |  | 0.0404 µM | 0.0432 µM | 0.0353 µM
10 | UACAUGAGGAUCACCCAUGUUUUGUCGUGUAUGGUAUUUAUCUAGGAUAUCAAGUUAUUUAUGUAUGAGAAGGAGAAUAUUAAU [JMF's solution 36] (Eterna round: R96, puzzle: Exclusion NG 3) |  |  |  | 0.0425 µM | 0.0352 µM | 0.0264 µM
11 | UACAUGAGGAUCACCCAUGUUUUGUCGUGUAUGGUAUUUAUCUAGGAUAUCAAGUUAUUUGUUUAUGAGAAGGAGAAUAUUAAU [JMF's solution 33] (Eterna round: R96, puzzle: Exclusion NG 3) |  |  |  | 0.0371 µM | 0.0371 µM | 0.0261 µM
12 | UACAUGAGGAUCACCCAUGUUUUGUCGUGUAUGGUAUUUAUCUAGGAUAUCAAUGUAUUUAUUCAUGAGAAGGAGAAUAUUAAU [JMF's solution 48] (Eterna round: R96, puzzle: Exclusion NG 3) |  |  |  | 0.0324 µM | 0.0337 µM | 0.0283 µM
13 | UACAUGAGGAUCACCCAUGUUUUGUCGUGUAUGGUAUUUAUCUAGGAUAUCAAUUGAAUUAUUUAUGAGAAGGAGAAUAUUAAU [JMF's solution 58] (Eterna round: R96, puzzle: Exclusion NG 3) |  |  |  | 0.042 µM | 0.049 µM | 0.0364 µM
14 | UACAUGAGGAUCACCCAUGUUUUGUCGUGUAUGGUAUUUAUCUAGGAUAUCAAUUUACUUAUUUAUGAGAAGGAGAAUAUUAAU [JMF's solution 19] (Eterna round: R96, puzzle: Exclusion NG 3) |  |  |  |  |  | 0.0268 µM
15 | UACAUGAGGAUCACCCAUGUUUUGUCGUGUAUGGUAUUUAUCUAGGAUAUCAAUUUAGUUAAUUAUGAGAAGGAGAAUAUUAAU [JMF's solution 75] (Eterna round: R96, puzzle: Exclusion NG 3) |  |  |  |  |  | 0.0289 µM
16 | UACAUGAGGAUCACCCAUGUUUUGUCGUGUAUGGUAUUUAUCUAGGAUAUCAUUGUAUUUAGUUAUGAGAAGGAGAAUAUUAAU [JMF's solution 83] (Eterna round: R96, puzzle: Exclusion NG 3) |  |  |  | 0.0302 µM | 0.033 µM | 0.0229 µM
17 | UACCUCACUUCUUUGACUCACAUGAGGAUCACCCAUGUAAUAUAGGAUAUGCAUUUUAUUUCUUUGCAGAAGGAUAUUAGUUUU [JR_ExcNG3_Sub089] (Eterna round: R96, puzzle: Exclusion NG 3) |  |  |  |  |  | 0.0313 µM

Row | Sequence | apparent KD of MS2 coat protein [1] | apparent KD of MS2 coat protein [2] | apparent KD of MS2 coat protein [3] | apparent KD of MS2 coat protein (input ligand: FMN 200 uM) | apparent KD of MS2 coat protein (input ligand: none) | apparent KD of MS2 coat protein [4]
18 | UACUAUAAGGAGGAUAUCGUAUCGGAAACGAUACGAGAAGGCUUAACAUGAGGAUCACCCAUGUUCUUCAAUAA [Fiskers Ex 6 - 25] (puzzle: Exclusion 6) |  | 0.0162 µM |  |  |  | 
19 | UACUAUAAGGAGGAUAUCGUAUCGGAAACGAUACGAGAAGGCUUAACAUGAGGAUCACCCAUGUUCUUCAAUAU [Fiskers Ex 6 - 26] (puzzle: Exclusion 6) | 0.016 µM | 0.0162 µM | 0.0146 µM |  |  | 
20 | UAGAAGGUAGGAUAUACGAAUAAAUAGGGUAGUAAUAAUACACAUGAGGAUCACCCAUGUAGAAGGACCAAGAU [Mat - Exclusion 2 - Mod of my Tesla design - D31] (puzzle: Exclusion 2) | 0.0442 µM | 0.0201 µM | 0.023 µM |  |  | 
21 | UAGAGACAUGAGGAUCACCCAUGUGAGGAUAUAGAGAAAGAUUGCGAGAGGGAGAGGACUAGAAGGCACAGUGA [JR_Exclu1_Sub033] (puzzle: Exclusion 1) | 0.0391 µM | 0.0488 µM | 0.0519 µM |  |  | 
22 | UAGAUGGCUCAGGAUAUUUGCCAACUAACUCGCGAAGAAGGGAGCACAUGAGGAUCACCCAUGUGAUCGAACGG [Rila] (puzzle: Exclusion 6) |  | 0.0163 µM |  |  |  | 
23 | UAGAUGGGAGGAUAUACAUAGAUACAGAUUCAUGUAGUGCUACAUGAGGAUCACCCAUGUAGAAGGCCCGUCUU [JL-ex2-2.18 Mayanne mod] (Eterna round: R96, puzzle: Exclusion 2) |  |  |  | 0.407 µM | 0.0379 µM | 0.0332 µM
24 | UAGAUGGGAGGAUAUACAUAGAUACAGAUUCAUGUAGUGCUACAUGAGGAUCACCCAUGUAGAAGGCCCGUCUU [JL-ex2-2.18 Mayanne mod] (puzzle: Exclusion 2) |  | 0.0316 µM |  |  |  | 
25 | UAGAUGGGAGGAUAUGCGUAGAUGCGGAUUCGUGUGGUGCUACAUGAGGAUCACCCAUGUAGAAGGCCCGUCUU [JL-ex2-2.26 Mayanne mod] (puzzle: Exclusion 2) |  | 0.0135 µM |  |  |  | 
26 | UAGAUGUGAGGAUAUACAUGAAUGCAGGAUCGUGUGGUGCUACAUGAGGAUCACCCAUGUAGAAGGCACGUCUU [Mod 9 R3 JL-ex2-2.29 - Jieux - Exclusion 2] (Eterna round: R97, puzzle: Exclusion 2) |  |  |  | 0.02 µM | 0.0139 µM | 
27 | UAGCAUUGCCUUUGGUAGUGCUUUACAUGAGGAUCACCCAUGUAGGAUAUGGUAGGCUUUGCUUACCAGAAGGACAUGAUAAUU [JL ENG3 1.04] (Eterna round: R96, puzzle: Exclusion NG 3) |  |  |  |  |  | 0.0523 µM
28 | UAGCUUCCGGUCAGGAUAUACGCUGGCGAAUAGCAGUAGAAGGGACAUGAGGAUCACCCAUGUGGGUUCAAAGA [Zabetima] (puzzle: Brourd's mod of Exclusion 4) | 0.091 µM | 0.0394 µM | 0.0442 µM |  |  | 
29 | UAGGUGUGAGGAUAUGGUAAAGAUAAGAUGAUGAAAGAACUCCAGAAGGCACAUGAGGAUCACCCAUGUAGAUA [Mat - Exclusion 4 - Mod of JL - D31] (puzzle: Exclusion 4) | 0.0349 µM | 0.02 µM | 0.0205 µM |  |  | 
30 | UAGUAGCAAGGAUAUACAGAGGAGAGGAUUGCAAGAGGUGGACAUGAGGAUCACCCAUGUAGAAGGUGCAGAGA [JR_Exclu2_Sub021] (puzzle: Exclusion 2) | 0.31 µM | 0.275 µM | 0.362 µM |  |  | 
31 | UAGUGCUGAGGAUAUACAUGAGGAUCACCCAUGUGCCUUUAACUUAAAGUGUGCACAAGUAGAAGGCGGUGCAA [Eternabot (L1) Solution 93] (Eterna round: R97, puzzle: Exclusion 3) |  |  |  | 0.02 µM | 0.0195 µM | 
32 | UAUACUAGAUAGGAUAUACUAUAUAAAUAAUUCGUAGAAGGAUCUACAUGAGGAUCACCCAUGUUAACAGCAGU [JR_E6_Sub005] (puzzle: Exclusion 6) | 0.0307 µM | 0.0466 µM | 0.0466 µM |  |  | 
33 | UAUAUAUAGUAAGGAUAUGUAAAUAUUUUAUAAACAGAAGGUACUGACAUGAGGAUCACCCAUGUUUUAGUGUGGGCAUGUAGA [JMF's solution 28] (Eterna round: R96, puzzle: Exclusion NG 1) |  |  |  |  |  | 0.0662 µM
